The source of these data is the supplement of paper PMC12042874.

± gives the uncertainty stated by the source.

The data set is described as follows: amyloid nucleation score (Sup35N fusion, yeast selection) (log enrichment); library NNK3; higher = more nucleation; inactive = no reads after selection. In outline: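 DiMSum was used to calculate nucleation scores as log enrichment of output over input reads, centred on the mode score of non-aggregating sequences. Sequences with fewer than 100 input reads were not scored. Input and output came from Illumina sequencing of plasmid inserts in psi-negative yeast expressing peptides of 20 random codons fused to Sup35N, induced 24 hours with 100 μM copper sulfate and then grown 7 days at 30°C on medium lacking adenine and uracil.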
LKLFWSLET: the amyloid nucleation score result is “inactive”.
In the case of LKNVTDKMHTYLRLEGSRHV, the amyloid nucleation score entry was “inactive”.
Turning to LKRSFNDFEFH, the amyloid nucleation score result is “inactive”.
In the case of LKRYFI, the amyloid nucleation score entry was “inactive”.
As for LKTNCTPNMLFGFLSEMMRC, the entry is “inactive”; as for LKVFKWKISTLMKAAQPIAS, “inactive”.
As for LKVPSVVNR, the entry is “inactive”.
Regarding LKWQVRHLWGNDVVGHRYTH, the amyloid nucleation score was -0.546 ± 0.6.
As for LKYSDSSDI, the figure is 0.235 ± 0.26; as for LLERDYR, “inactive”.
In the case of LLFALDGFIAGWMCMWGDRF, the amyloid nucleation score entry is “inactive”.
The result for LLFQL reads “inactive”.
For the substance LLFQSIVVY, the amyloid nucleation score result is “inactive”.
The result for LLFSGHYVGAYLGYVFPICS reads “inactive”; that for LLGSFEGLIALYSGGWMAYR, -0.108 ± 0.77; that for LLGYASMASSFIYIQHNVLE, “inactive”.
As for LLIFMFCLAFVFFFMAKDGN, the entry is “inactive”; as for LLIIGLKSAVGVW, “inactive”.
Consider LLIRVLYLWSLESISNG, for which the amyloid nucleation score entry is “inactive”.
Take LLKCYRPFSVFIYFNVLASG: the amyloid nucleation score result is “inactive”.
The result for LLKIFNNEVKITITFCLLYV reads “inactive”; that for LLKRKLIVAFKKSMLFDFMV, “inactive”; that for LLLCS, 0.402 ± 0.18.
Take LLLRFFRYLGYKLMRTIE: the amyloid nucleation score entry is “inactive”.
As for LLLTYFMMGYYVVWYVFGYW, the entry is “inactive”; as for LLNTRGSRVMLLGHRLFDN, “inactive”.
The result for LLNWSYIKRLFLVGIKSGHR reads “inactive”; that for LLSIRTSSCFCKRGSTKFED, 0.176 ± 0.33; that for LLTARTITSCKQWPGTSRYT, “inactive”.
As for LLTFSMVDKFLSDNSYLNGI, the entry is “inactive”.
Turning to LLVGEIGYLEHTMHNCEVEG, the amyloid nucleation score entry was “inactive”.
As for LLVLRGYSDVIFKNTLYGNE, the entry is “inactive”.
As for LLVYAVENPGLVWNSRHGLF, the figure is -1.37 ± 2.5; as for LLVYFE, “inactive”.
The result for LLWVQQHWLKNDTLVTYKAK reads “inactive”; that for LLYMSECNELSIDRLVNLSK, “inactive”.
LLYVICPVRINLRHWRATDS: the amyloid nucleation score was 0.487 ± 0.17.
The result for LMFGVIMPITDDMFYGQESV reads “inactive”; that for LMIWVSDLSE, “inactive”; that for LMMLCLSVGMMKRSAYRLFT, “inactive”.
In the case of LMQDLENVS, the amyloid nucleation score result is “inactive”.
The result for LMRNRFFNPVSGTFTASIGQ reads -0.302 ± 1.1.
Consider LMRNSMLKTCFRSTAFH, for which the amyloid nucleation score result is “inactive”.
The result for LMTNRVVL reads “inactive”.
The result for LMVVWMLYGNNTCYDALMLC reads “inactive”.
As for LNCAILASHSHYTK, the entry is “inactive”; as for LNCVSQMRVDRDANYSCNFF, -0.142 ± 0.78.
LNEYNINDFTLFSCTFIGNV showed an amyloid nucleation score of 2.73 ± 0.081.
With LNFGEFILMAGDLLTLMCVF, the amyloid nucleation score is 1.42 ± 0.12.
With LNFVWNFNWLYWFLYGIERV, the amyloid nucleation score result was “inactive”.
The result for LNGSCKCLKELFVCYRSWVN reads -0.79 ± 0.93; that for LNIFTYMCVMALMCLEKITS, 1.73 ± 0.11.
As to LNLDCTS, the amyloid nucleation score result is “inactive”.
On to LNLGILACSGKRLSQSCRLT, for which the amyloid nucleation score result was “inactive”.
The result for LNLWD reads “inactive”; that for LNQLRSDITGLMSMTWDDLC, “inactive”; that for LNRSSLYFF, “inactive”.
Regarding LNSIG, the amyloid nucleation score entry is “inactive”.
Take LNSKFMLASTLLAKW: the amyloid nucleation score entry is “inactive”.
With LNSKIKLNYYLIF, the amyloid nucleation score was 0.108 ± 0.19.
On to LNSYQDYSRGVLLKRKALLY, for which the amyloid nucleation score result was “inactive”.
With LNVGCLWRGDGGNRRAQWDV, the amyloid nucleation score result was “inactive”.
On to LNYFR, for which the amyloid nucleation score result is “inactive”.
As for LNYIIRRLIVIILFSQHQYY, the amyloid nucleation score entry is “inactive”.
The result for LNYVLS reads “inactive”.
As for LPGFSTCFARCDWWEVQPQG, the entry is “inactive”; as for LPLFSLSTFFFVCVVCL, 0.464 ± 0.14.
As for LPLPFFQRVNNGKSVLGVHL, the entry is “inactive”; as for LPLSFSL, “inactive”.
Regarding LPNSNTGKKCYGMNHSKENC, the amyloid nucleation score result is “inactive”.
Consider LPPFAWPRMIPWWGRAKVIS, for which the amyloid nucleation score result was “inactive”.
LPRPFSYSGLR: the amyloid nucleation score is -0.289 ± 0.59.
The result for LPSYLESYYCVRVISGFYLS reads “inactive”.
As for LPYPPAITALPRPCCVNHRV, the entry is “inactive”.
With LQFGVRINSLFYRMVSAVVG, the amyloid nucleation score result is “inactive”.
For the substance LQNLNGLIVKSCL, the amyloid nucleation score entry was “inactive”.
For LQRRYFGSRSLGTFARMFQH, the amyloid nucleation score result is “inactive”.
Regarding LQTMTDSFKRTQCLCSYKCT, the amyloid nucleation score entry was “inactive”.
LRCGSSSDELCMREWFRVDL: the amyloid nucleation score entry is “inactive”.
As for LREVRTAVSLGQMGRGLQA, the entry is “inactive”; as for LRFRTDFSSASNK, 1.18 ± 0.081.
The result for LRFVSKLWWFISMSSRSHLH reads “inactive”.
The result for LRGFKEVTTRLKVRLQLGM reads -0.731 ± 1.3; that for LRGGKFNQYWIGRHGLSSVS, -0.562 ± 1.1; that for LRGTD, “inactive”.
As for LRKPYLEY, the amyloid nucleation score entry is “inactive”.
The result for LRMSTSGIPYYMSGMSYYNI reads “inactive”; that for LRNQITQIDDT, “inactive”; that for LRPKYTFYCRLD, 0.137 ± 0.28.
LRTGCSYNSREGHNTLGRSS: the amyloid nucleation score entry is “inactive”.
Consider LRVTKQVLSSMMFTITFGGD, for which the amyloid nucleation score entry is “inactive”.
As for LRWRHGCIR, the entry is “inactive”; as for LRYASTSSFLVFQRDTLANE, “inactive”; as for LSAFVQDVLNVIQMLTEREF, “inactive”.
LSECLRHGSDDTRFEVVGQD had an amyloid nucleation score of 1.34 ± 0.097.
As for LSFIISCNYTINNNMWV, the figure is 2.91 ± 0.077; as for LSFSLWNLEYIEISRRNLTL, 1.2 ± 0.097; as for LSFVP, “inactive”.
Take LSFYMVKGLKNKI: the amyloid nucleation score result was “inactive”.
As for LSGELCSW, the amyloid nucleation score entry is “inactive”.
Turning to LSGENQLG, the amyloid nucleation score result is “inactive”.
Turning to LSGMMFAGPFLTCSLDCWML, the amyloid nucleation score entry was “inactive”.
As for LSHSRSNL, the entry is “inactive”.
As for LSILTFGSCTNKSH, the entry is “inactive”; as for LSIVLGEDLMRCTRSDSVWK, “inactive”; as for LSKLTSSQAGKG, “inactive”.
LSLAS: the amyloid nucleation score entry was “inactive”.
As for LSLKRHLYLKVDASLTCVRT, the entry is “inactive”.
On to LSLLSFNGIGHFLIVRKRYK, for which the amyloid nucleation score entry was “inactive”.
As for LSLSSFCF, the figure is 1.3 ± 0.17; as for LSNDF, “inactive”; as for LSNHSSLASRSYFTNCN, “inactive”.
The result for LSNMMVVPSTSERFFFRAMG reads “inactive”; that for LSPCGL, “inactive”; that for LSPSVFVNSNRLMTESSRGF, “inactive”.
The result for LSSDGFYFNTEYL reads “inactive”; that for LSSYMDYGMSKVYVLWRSTW, -0.117 ± 0.28.
Regarding LSVLTL, the amyloid nucleation score result was “inactive”.
The result for LSVTRNACTEPFRGFLIGLY reads “inactive”.
As for LSYHTCSVMYALRMSALDCR, the amyloid nucleation score result is “inactive”.
LTFGTCFGPYYGVYPNLFIM: the amyloid nucleation score result is “inactive”.
The result for LTGFIGICQLVSYFNEVALQ reads “inactive”.
LTGVLLMMVLYSRPHLTKAR: the amyloid nucleation score result is “inactive”.
The result for LTHGAVTVFYRFIMLSFILR reads “inactive”; that for LTLSMKFTWYFYVSIYSGQG, “inactive”.
For LTMPWTAYCPFKCFLLRADS, the amyloid nucleation score result was “inactive”.
With LTNLCES, the amyloid nucleation score result is “inactive”.
The result for LTRVTMGYIAEIQWNFMSKN reads 1.56 ± 0.066; that for LTSLVLVLLLCSTRNGNGTC, 1.55 ± 0.085; that for LTWLYDDDVSKFRTLLKFRS, “inactive”.
In the case of LTWYREDLYVRSWSCYWDQR, the amyloid nucleation score result is “inactive”.
The result for LVAKRFISYHLIV reads “inactive”; that for LVAWCDIPNCCANVYCNSVD, 1.85 ± 0.077.
